The record followed here is article PMC10704376, “tRNA m^1G9 modification depends on substrate-specific RNA conformational changes induced by the methyltransferase Trm10” (The Journal of Biological Chemistry, 2023).

Data set [1] deals with T1, Trm10 (Saccharomyces cerevisiae, UniProt Q12400).
T1 construct: full-length, N-terminal 6xHis tag, plasmid pJEJ12-3, expressed in E. coli BL21(DE3) pLysS; monomer (printed PDB 4JWJ covers the C-terminal domain only)
T1 sequence (Q12400 1-293): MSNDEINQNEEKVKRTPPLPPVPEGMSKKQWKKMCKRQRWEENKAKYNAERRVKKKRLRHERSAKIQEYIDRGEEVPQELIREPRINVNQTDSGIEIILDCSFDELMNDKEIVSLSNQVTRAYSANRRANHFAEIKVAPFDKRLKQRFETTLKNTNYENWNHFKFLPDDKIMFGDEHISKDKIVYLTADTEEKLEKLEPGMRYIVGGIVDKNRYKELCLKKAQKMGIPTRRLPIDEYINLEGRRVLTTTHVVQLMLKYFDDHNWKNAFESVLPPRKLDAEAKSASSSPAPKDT
The data set is described as follows: electrospray mass spectrometry of RNase T1 fragments (+[…] Da adduct). Type of data set: biochemical. The settings on record: cosubstrate with tRNA-Gly-GCC; 1 h, 37 °C; covalent to tRNA G9, not to the enzyme.

Data set [2] relates to Trm10-KRR (Saccharomyces cerevisiae). The data set is described as follows: fluorescence anisotropy. The settings on record: unmodified transcript, FA: 15 nM labeled tRNA, 50-300 nM enzyme, 30 min at room temperature, buffer as in ref 17 (not given), EMSA: 4 uM tRNA, 0-10 uM protein, 30 C 30 min. In general terms: Polarisation of emitted light reports the rotation of a fluorescent probe.

In data set [3] the test system is Trm10 (wild type) (Saccharomyces cerevisiae). The data set is described as follows: fluorescence anisotropy. The settings on record: unmodified transcript, FA: 15 nM labeled tRNA, 50-300 nM enzyme, 30 min at room temperature, buffer as in ref 17 (not given), EMSA: 4 uM tRNA, 0-10 uM protein, 30 C 30 min.

A word on the Kd: it is the concentration at which binding is half-saturated. Lower therefore signals a tighter complex.

Where a name gives a salt, the structure may show the parent alone.

Turning to `Nc1ncnc2c1ncn2[C@@H]1O[C@H](CN(CCI)CC[C@H](N)C(=O)O)[C@@H](O)[C@H]1O` [NM6, 5′-(diaminobutyric acid)-N-iodoethyl-5′-deoxyadenosine ammoniumhydrochloride], in data set [1], the “electrospray mass spectrometry of RNase T1 fragments (+393 Da adduct)” value is on record as “NM6 was confirmed to be a suitable cosubstrate for tRNA modification by Trm10 using mass spectrometry”.
As to tRNAGly-GCC, 5'-fluorescein transcript, the Kd in data set [2] worked out at 34 nM; in data set [3] (separate data set, differs from Fig 4C), 100 nM; in data set [3], 20 nM.
As to tRNALeu-CAA, FA transcript, in data set [3], the Kd is 38 nM.
Still for that read-out and setting: for tRNAVal-UAC, FA transcript the value was 96 nM.
